Data from PMC5431456.

Key:
[1] = molecular target: Subtilase cytotoxin B subunit (SubB), wild type (Escherichia coli) (UniProt Q6EZC3); test: SPR; Biacore T100; SubB or SubB mutant immobilised on a series S CM5 chip (flow cell 1 blank); AGP flowed over, 0.01-100 µM in range finding; single cycle kinetics
[2] = molecular target: SubB ΔS106/ΔT107 (Escherichia coli) (UniProt Q6EZC3); test: SPR
[3] = molecular target: SubB S106A/T107A (Escherichia coli) (UniProt Q6EZC3); test: SPR
[4] = molecular target: SubB ΔS106/ΔT107/E108D (Escherichia coli) (UniProt Q6EZC3); test: SPR

Substance: human α1-acid glycoprotein (AGP) (from UniProt P02763 19-201) (natural protein)
- Kd [1]: 2120 nM
- Kd [2]: 1650 nM
- Kd [3]: 723 nM
- Kd [4]: 2820 nM
